Data published in PMC6784111.

Legend:
Assay in all cases: SPR; 40 RU of each antibody immobilized on a CM5 chip; oxMIF (MIF treated with 0.2% Proclin300) injected at 3–25 nM in HBS-EP (HEPES 10 mM, NaCl 150 mM, EDTA 3 mM, 0.005% Tween-20); BIAcore T200; 25 °C; 1:1 Langmuir model
BaxM159 variant 9-EIVLGE = target: BaxM159 variant 9-EIVLGE
[1] = target: BaxM159 variant 2-DIQMAQ-K (parental anti-oxMIF antibody with the heavy chain C-terminal lysine)
BaxM159 variant 6-EIVLGQ = target: BaxM159 variant 6-EIVLGQ
[2] = target: BaxM159 variant 1-DIQMAQ (parental anti-oxMIF antibody without the heavy chain C-terminal lysine)
BaxM159 variant 8-DIQMGE = target: BaxM159 variant 8-DIQMGE
BaxM159 variant 7-EIVLAE = target: BaxM159 variant 7-EIVLAE
BaxM159 variant 5-DIQMAE = target: BaxM159 variant 5-DIQMAE
BaxM159 variant 3-EIVLAQ = target: BaxM159 variant 3-EIVLAQ
BaxM159 variant 4-DIQMGQ = target: BaxM159 variant 4-DIQMGQ

B1: oxidized macrophage migration inhibitory factor (oxMIF) (natural protein)
chain: MPMFIVNTNVPRASVPDGFLSELTQQLAQATGKPPQYIAVHVVPDQLMAFGGSSEPCALCSLHSIGKIGGAQNRSYSKLLCGLLAERLRISPDRVYINYYDMNAANVGWNNSTFA
modifications: converted to its oxidized form by treatment with 0.2% Proclin300
**Q.** Which Kd (BaxM159 variant 9-EIVLGE) does the source give for B1 here?
**A.** Its Kd is 1.4 nM.

**Q.** What about the koff (BaxM159 variant 9-EIVLGE) of the same binder?
**A.** Its koff is 0.00044 s⁻¹.

**Q.** What about the kon (BaxM159 variant 9-EIVLGE) of the same binder?
**A.** Its kon is 310000 M⁻¹ s⁻¹.

**Q.** And the Kd [1]?
**A.** The Kd was 3 nM.

**Q.** What about the koff [1] of the same binder?
**A.** Its koff is 0.00038 s⁻¹.

**Q.** What about the kon [1] of the same binder?
**A.** The kon was 130000 M⁻¹ s⁻¹.

**Q.** What about the Kd (BaxM159 variant 6-EIVLGQ) of the same binder?
**A.** Its Kd is 2.7 nM.

**Q.** And the koff (BaxM159 variant 6-EIVLGQ)?
**A.** Its koff is 0.00064 s⁻¹.

**Q.** What about the kon (BaxM159 variant 6-EIVLGQ) of the same binder?
**A.** Its kon is 260000 M⁻¹ s⁻¹.

**Q.** What about the Kd [2] of the same binder?
**A.** Its Kd is 2.6 nM.

**Q.** And the koff [2]?
**A.** The koff was 0.00029 s⁻¹.

**Q.** What about the kon [2] of the same binder?
**A.** Its kon is 110000 M⁻¹ s⁻¹.

**Q.** And the Kd (BaxM159 variant 8-DIQMGE)?
**A.** Its Kd is 4.2 nM.

**Q.** What about the koff (BaxM159 variant 8-DIQMGE) of the same binder?
**A.** Its koff is 0.00054 s⁻¹.

**Q.** And the kon (BaxM159 variant 8-DIQMGE)?
**A.** The kon was 130000 M⁻¹ s⁻¹.

**Q.** And the Kd (BaxM159 variant 7-EIVLAE)?
**A.** Its Kd is 2.4 nM.

**Q.** What about the koff (BaxM159 variant 7-EIVLAE) of the same binder?
**A.** The koff was 0.00044 s⁻¹.

**Q.** And the kon (BaxM159 variant 7-EIVLAE)?
**A.** The kon was 180000 M⁻¹ s⁻¹.

**Q.** And the Kd (BaxM159 variant 5-DIQMAE)?
**A.** The Kd was 2.5 nM.

**Q.** And the koff (BaxM159 variant 5-DIQMAE)?
**A.** Its koff is 0.0004 s⁻¹.

**Q.** What about the kon (BaxM159 variant 5-DIQMAE) of the same binder?
**A.** Its kon is 160000 M⁻¹ s⁻¹.

**Q.** And the Kd (BaxM159 variant 3-EIVLAQ)?
**A.** The Kd was 1.5 nM.

**Q.** And the koff (BaxM159 variant 3-EIVLAQ)?
**A.** The koff was 0.00031 s⁻¹.

**Q.** What about the kon (BaxM159 variant 3-EIVLAQ) of the same binder?
**A.** The kon was 200000 M⁻¹ s⁻¹.

**Q.** What about the Kd (BaxM159 variant 4-DIQMGQ) of the same binder?
**A.** The Kd was 4.3 nM.

**Q.** And the koff (BaxM159 variant 4-DIQMGQ)?
**A.** Its koff is 0.00056 s⁻¹.

**Q.** And the kon (BaxM159 variant 4-DIQMGQ)?
**A.** The kon was 160000 M⁻¹ s⁻¹.
